# Results taken from US20180201657A1.
# Legend:
# [1] = biological target: CD4-TM:CaMbp(M2):eLOV:TEVcs(high affinity):Gal4 (Avena sativa); experiment: cell-based or functional assay
# [2] = biological target: CD4-TM:CaMbp(M2):LOV:TEVcs(high affinity):Gal4 (original LOV2) (Avena sativa); experiment: cell-based or functional assay
# [3] = biological target: CD4-TM:CaMbp(M2):TEVcs:Gal4 (without LOV domain) (UniProt P04386); experiment: cell-based or functional assay
# [4] = biological target: FLARE transcription factor component as used in cultured neurons (Neurexin-3b-derived TM, soma targe (Avena sativa)); experiment: cell-based or functional assay
# [5] = biological target: Aga2p-HA-eLOV-TEVcs(ENLYFQY)-FLAG displayed on yeast (UniProt P32781)
# Sequence of CD4-TM:CaMbp(M2):eLOV:TEVcs(high affinity):Gal4 (Avena sativa) (Q2QYY8 other isoform, or with tags, fused parts or gaps): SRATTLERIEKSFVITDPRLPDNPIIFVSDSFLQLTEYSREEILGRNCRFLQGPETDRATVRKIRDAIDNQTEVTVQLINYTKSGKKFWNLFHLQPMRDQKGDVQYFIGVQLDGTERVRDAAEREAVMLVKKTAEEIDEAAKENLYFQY
substance,measurement,setting,value
CaM-TEV(truncated) (from UniProt P04517 2038-2256),"high/low Ca^2+ S/N (reporter expression, HEK cells)",[1],16
same,"light/dark S/N (reporter expression, HEK cells)",[1],23
same,"high/low Ca^2+ S/N (reporter expression, HEK cells)",[2],5
same,"light/dark S/N (reporter expression, HEK cells)",[2],2
same,"high/low Ca^2+ S/N (reporter expression, HEK cells)",[3],2
FLARE protease component as used in cultured neurons (CaM-TEV) (from UniProt P04517 2038-2256),"S/N with versus without neuronal activity (mCherry, field stimulation with blue light, 8 minutes)",[4],11
same,"light/dark S/N (mCherry reporter, cultured neurons, field stimulation, FIG. 10D)",[4],17
same,"light/dark S/N (mCherry reporter, cultured neurons, media change, FIG. 10C)",[4],121
same,mCherry signal with stimulation against light exposed/non-stimulated neurons,[4],> 10 fold
"MBP-TEV(S219V) fusion, purified",anti-Flag/anti-HA staining of yeast after TEV protease treatment in the dark (FACS),[5],Evolved LOV displays superior protection of TEVcs against TEV cleavage in the dark state
